These results are taken from patent US20210171647A1 (WUXI BIOLOGICS SHANGHAI, published 2021).

Test in all cases: ELISA, antibody coated, OX40-ECD.His mutant supernatant; relative to silent alanine substitutions;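 note: captured OX40 mutant protein detected with HRP-labelled anti-His antibody, absorbance read-out, scaled to the mean signal of control mutants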
In one assay the target is T1, human OX40-ECD.His Q103A (human, UniProt P43489 29-214).
T1 construct: extracellular domain; not shown: C-terminal His-tag
T1 sequence (looked up): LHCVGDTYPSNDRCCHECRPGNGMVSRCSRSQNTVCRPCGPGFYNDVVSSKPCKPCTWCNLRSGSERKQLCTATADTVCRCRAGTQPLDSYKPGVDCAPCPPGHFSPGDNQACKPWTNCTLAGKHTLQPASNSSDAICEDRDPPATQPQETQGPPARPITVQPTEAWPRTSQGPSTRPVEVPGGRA

Another assay concerns the target T2, human OX40-ECD.His D40A (human, UniProt P43489 29-214).
T2 construct: extracellular domain; not shown: C-terminal His-tag
T2 sequence (looked up): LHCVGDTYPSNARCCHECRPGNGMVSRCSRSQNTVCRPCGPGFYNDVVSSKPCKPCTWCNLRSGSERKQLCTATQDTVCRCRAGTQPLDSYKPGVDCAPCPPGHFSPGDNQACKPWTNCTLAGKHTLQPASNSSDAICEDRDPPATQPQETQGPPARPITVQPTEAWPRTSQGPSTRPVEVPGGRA

For a further assay, the target named is T3, human OX40-ECD.His Y119A (human, UniProt P43489 29-214).
T3 construct: extracellular domain; not shown: C-terminal His-tag
T3 sequence (looked up): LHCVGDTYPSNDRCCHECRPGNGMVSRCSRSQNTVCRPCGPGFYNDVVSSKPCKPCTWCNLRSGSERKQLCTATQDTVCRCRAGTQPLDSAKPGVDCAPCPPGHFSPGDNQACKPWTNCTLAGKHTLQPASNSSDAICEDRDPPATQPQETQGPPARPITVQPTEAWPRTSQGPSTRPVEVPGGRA

The next assay has as its target T4, human OX40-ECD.His S162A (human, UniProt P43489 29-214).
T4 construct: extracellular domain; not shown: C-terminal His-tag
T4 sequence (looked up): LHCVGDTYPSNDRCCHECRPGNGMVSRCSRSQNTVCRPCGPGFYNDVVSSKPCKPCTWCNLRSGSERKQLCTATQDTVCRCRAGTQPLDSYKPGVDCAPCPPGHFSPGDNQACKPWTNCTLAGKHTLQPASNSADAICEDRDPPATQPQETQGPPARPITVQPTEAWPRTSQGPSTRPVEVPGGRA

The next assay addresses T5, human OX40-ECD.His Y36A (human, UniProt P43489 29-214).
T5 construct: extracellular domain; not shown: C-terminal His-tag
T5 sequence (looked up): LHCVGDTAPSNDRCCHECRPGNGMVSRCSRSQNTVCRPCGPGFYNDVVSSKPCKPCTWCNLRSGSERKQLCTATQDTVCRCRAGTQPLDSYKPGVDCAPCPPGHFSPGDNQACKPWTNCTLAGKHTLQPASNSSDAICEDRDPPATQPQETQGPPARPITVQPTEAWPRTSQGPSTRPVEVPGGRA

Another assay concerns the target T6, human OX40-ECD.His P130A (human, UniProt P43489 29-214).
T6 construct: extracellular domain; not shown: C-terminal His-tag
T6 sequence (looked up): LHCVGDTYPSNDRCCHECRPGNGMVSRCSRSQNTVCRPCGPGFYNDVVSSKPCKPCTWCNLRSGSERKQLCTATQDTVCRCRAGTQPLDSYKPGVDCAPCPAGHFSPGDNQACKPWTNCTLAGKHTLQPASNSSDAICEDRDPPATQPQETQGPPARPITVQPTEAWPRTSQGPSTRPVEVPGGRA

The target of a further assay is T7, human OX40-ECD.His A158G (human, UniProt P43489 29-214).
T7 construct: extracellular domain; not shown: C-terminal His-tag
T7 sequence (looked up): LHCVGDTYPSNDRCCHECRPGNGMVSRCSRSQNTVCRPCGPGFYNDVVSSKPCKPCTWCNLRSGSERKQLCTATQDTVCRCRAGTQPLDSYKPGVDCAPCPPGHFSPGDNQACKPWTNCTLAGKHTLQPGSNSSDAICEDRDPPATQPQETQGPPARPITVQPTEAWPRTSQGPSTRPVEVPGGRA

In another assay the target is T8, human OX40-ECD.His G92A (human, UniProt P43489 29-214).
T8 construct: extracellular domain; not shown: C-terminal His-tag
T8 sequence (looked up): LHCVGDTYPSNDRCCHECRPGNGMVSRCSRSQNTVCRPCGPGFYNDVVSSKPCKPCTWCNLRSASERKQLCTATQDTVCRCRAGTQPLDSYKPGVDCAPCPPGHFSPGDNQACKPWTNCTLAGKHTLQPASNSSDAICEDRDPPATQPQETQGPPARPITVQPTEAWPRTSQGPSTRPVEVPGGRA

Another assay has as its target T9, human OX40-ECD.His G70A (human, UniProt P43489 29-214).
T9 construct: extracellular domain; not shown: C-terminal His-tag
T9 sequence (looked up): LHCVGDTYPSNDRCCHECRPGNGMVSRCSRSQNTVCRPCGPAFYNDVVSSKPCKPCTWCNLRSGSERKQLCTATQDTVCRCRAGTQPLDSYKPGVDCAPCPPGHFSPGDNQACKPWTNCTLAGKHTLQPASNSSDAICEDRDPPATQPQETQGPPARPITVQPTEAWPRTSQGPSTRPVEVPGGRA

For another assay, the target named is T10, human OX40-ECD.His D104A (human, UniProt P43489 29-214).
T10 construct: extracellular domain; not shown: C-terminal His-tag
T10 sequence (looked up): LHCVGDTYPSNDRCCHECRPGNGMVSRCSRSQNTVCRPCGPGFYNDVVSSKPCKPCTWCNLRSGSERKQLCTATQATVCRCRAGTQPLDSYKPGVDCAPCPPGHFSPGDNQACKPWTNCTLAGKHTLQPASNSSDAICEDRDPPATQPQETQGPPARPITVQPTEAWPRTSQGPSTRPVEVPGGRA

Method for human OX40-ECD.His A158G: (§1) After interacting with the supernatant that contains quantified OX40 mutants or human OX40-ECD.His protein, HRP conjugated anti-His antibody (1:5000, GenScript-A00612, CHN) was added as detection antibody. Absorbance was normalized according to the average of control mutants.
Method for human OX40-ECD.His D104A: as §1
Method for human OX40-ECD.His D40A: as §1
Method for human OX40-ECD.His G70A: as §1
Method for human OX40-ECD.His G92A: as §1
Method for human OX40-ECD.His P130A: as §1
Method for human OX40-ECD.His Q103A: as §1
Method for human OX40-ECD.His S162A: as §1
Method for human OX40-ECD.His Y119A: as §1
Method for human OX40-ECD.His Y36A: as §1

B1: 1.134.9-u1-IgG1L (antibody, V domains shown)
VH: QVQLQESGPGLVKPSGTLSLTCAVSGGSISSYNWWSWVRQPPGKGLEWIGEIYHGGNTNYNPSLKSRVTMSVDNSKNQFSLKLSSVTAADTAVYYCARAPGDWGGSPYFDFWGQGTLVTVSS
VL: SSELTQDPAVSVALGQTVRITCQGDNLRTYYASWYQQKPGQAPILLIYGRNKRPSGIPDRFSGSSSGNTASLTITGAQAEDEAAYYCNSRDSSGNPVVFGGGTKLTVL
notes: fully human IgG1, lambda
For B1, the “Fold Change” value is 0.974 with human OX40-ECD.His Q103A; 0.994 with human OX40-ECD.His D40A; 0.995 with human OX40-ECD.His Y119A; 0.998 with human OX40-ECD.His S162A; 1 in the assay with human OX40-ECD.His Y36A; 1.01 in the assay with human OX40-ECD.His P130A. Besides, the “Fold Change” value in the assay with human OX40-ECD.His A158G was 1.01; in the assay with human OX40-ECD.His G92A it was 0.233; with human OX40-ECD.His G70A it was 0.511; with human OX40-ECD.His D104A, 0.692.
